Consider four molecules from publication PMC7703470 (Biosensors & Bioelectronics, 2020).

The term Kd denotes the free concentration of one partner at which half of the binding sites on the other are occupied at equilibrium, for simple one-to-one binding. A higher Kd goes with weaker binding.

The experiment addresses SARS-CoV-2 nucleocapsid protein (NP) (Severe acute respiratory syndrome …, UniProt P0DTC9). As to the kind of experiment: BLI. In general terms: In BLI a coated tip is dipped into the sample, and binding shifts an interference pattern.

B1: 12H1 scFv-Fc antibody (scFv, V domains shown)
VH: AVTLDESGGGLQTPGGTLSLVCKASGFTFSDRGMHWVRQAPGKGLEWVAGIRGDGSYTDYAPAVKGRATISRDNGQSTVRLQLNNLRAEDTATYYCAKSSYKCSTWSCRGYESDSIDAWGHGTEVIVSS
VL: LTQPSSVSANLGGTVKMTCSGGSSGYGWYQQKSPGSAPVTLIYYNDKRPSGIPSRFSGSKSDSTGTLTITGVQAEDEAVYYCGNTDSSYVGMFGAGTTLTVL
Take B1: the Kd came out at 18.3 nM.

B2: 1G5 scFv-Fc antibody (scFv, V domains shown)
VH: AVTLDESGGGLQTPGGALSLVCKASGFTFSSYGMFWVRQAPGKGLEFVASITNTGSYTTYGAAVEGRATISRDNGQSTVRLQLNNLRAEDTAIYYCAKTSCNNCGWSGPGYIDAWGHGTEVIVSS
VL: LTQPSSVSANLGGTVKITCSGGGNDYGWYQQKAPGSAPVTVINTNDKRPSDIPSRFSGSKSGSTATLTITGVQAEDEAVYFCGAYDSSTSADIFGAGTTLTVL
The molecule B2 yielded a dissociation constant (Kd) of 2.86 nM.

B3: 12H8 scFv-Fc antibody (scFv, V domains shown)
VH: AVTLDESGGGLQTPGGGLSLVCKASGFTFSNYGMDWVRQAPGKGLEWVAGIDNDGSGRGYGAAVKGRATISRDNGQSTVRLQLNNLRAEDTATYYCAKSTYGGRGCCDTTDAWGHGTEVIVSS
VL: LTQPSSVSANPGETVKITCSGGGSWYGWFQQKSPGSAPVTVINANTNRPSDIPSRFSGSKSGSTGTLTITGVQADDEAVYFCGSYDSSTDSGIFGAGTTLTVL
B3: binding was characterised by a dissociation constant (Kd) of 1.31 nM.

B4: 12B3 scFv-Fc antibody (scFv, V domains shown)
VH: AVTLDESGGGLRTPRGALSLVCKASGFSFSDHGMAWVRQAPGKGLEWVAGISSGGSGTEYGAAVKGRATISRDNGQSTVRLQLNNLRAEDTGTYYCAKTTSPYCGWSGSLDYDCGAEDIDAWGHGTEVIVSS
VL: LTQPSSVSANLGETVKITCSGDSNYYGWYQQKSPGSAPVTVIYDNAKRPSNIPSRFSGSKSGSTNTLTITGVQAEDEAVYFCGGWDSDTGTFGAGTTLTVL
With B4, the affinity, expressed as Kd, was 8.47 nM.
